According to paper PMC7484162:

Target: CD33 (UniProt P20138)
Chain of UniProt P20138 (P20138 18-364): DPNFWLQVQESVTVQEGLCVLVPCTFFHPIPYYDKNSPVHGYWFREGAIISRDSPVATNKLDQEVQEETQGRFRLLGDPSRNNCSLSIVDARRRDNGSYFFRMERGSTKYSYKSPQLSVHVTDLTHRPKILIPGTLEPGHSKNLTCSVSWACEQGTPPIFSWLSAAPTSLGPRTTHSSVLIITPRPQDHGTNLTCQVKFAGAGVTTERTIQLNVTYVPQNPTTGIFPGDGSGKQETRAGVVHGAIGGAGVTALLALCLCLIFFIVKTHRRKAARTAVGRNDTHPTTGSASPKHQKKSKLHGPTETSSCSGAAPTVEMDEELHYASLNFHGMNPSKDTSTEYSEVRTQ

Kd: 25.6 nM
Substance: cam16-wt15–33 TriKE (second-generation Tri-specific Killer Engager) (from UniProt P40933 49-162)
